Laboratory results published in US20040087013, “Stable macroscopic membranes formed by self-assembly of amphiphilic peptides and uses therefor” (published 2004).

Biological target: T1, zuotin (ZUO1), yeast-purified fractions (Saccharomyces cerevisiae, UniProt P32527 SEQ:1-433)
T1 sequence: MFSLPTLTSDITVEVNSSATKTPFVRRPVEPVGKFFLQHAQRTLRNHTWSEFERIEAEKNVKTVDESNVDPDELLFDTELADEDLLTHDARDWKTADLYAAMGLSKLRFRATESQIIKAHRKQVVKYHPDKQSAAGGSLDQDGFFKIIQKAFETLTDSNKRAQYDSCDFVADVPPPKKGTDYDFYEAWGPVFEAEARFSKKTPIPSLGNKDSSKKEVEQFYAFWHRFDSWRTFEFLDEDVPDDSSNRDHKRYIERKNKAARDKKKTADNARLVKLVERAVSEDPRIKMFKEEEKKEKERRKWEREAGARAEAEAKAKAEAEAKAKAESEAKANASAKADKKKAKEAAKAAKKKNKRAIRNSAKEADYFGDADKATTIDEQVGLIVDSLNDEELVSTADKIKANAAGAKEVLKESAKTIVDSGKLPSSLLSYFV
Test: EMSA; fraction FI; 2000-fold excess salmon sperm DNA
Settings: tags: none; label: 32P; left-handed Z-DNA, 44mer alternating dG-Br5dC
From the text: In order to determine if these band shifts were the result of authentic Z-DNA binding, negatively supercoiled plasmids of pUC19 and pUC19(GC) were used as competitor DNAs in gel retardation competition assays.
A gel retardation assay was employed to detect proteins with affinity to left-handed Z-DNA. In these assays, two kinds of left-handed DNA probes were used. […] The other probe was derived from a synthetic 44mer oligo(dG-Br⁵dC)₂₂, labelled using Klenow polymerase with [α-³²P]dGTP, and stabilized in the Z-DNA conformation by 10 mM MgCl₂, or 0.1 mM Co(NH₃)₆³⁺. […] In the competition assays, supercoiled pUC19 and pUC19(CG) were added to the reaction samples separately. […] After electrophoresis, the gel was dried and exposed to X-ray film.

B1: oligo (dG-Br5dC)22 Z-form (dsDNA)
DNA 1: GCGCGCGCGCGCGCGCGCGCGCGCGCGCGCGCGCGCGCGCGCGC
DNA 2: B1 DNA 1
modifications: 5-bromo-dC at all C [5-bromo-dC at all C (2,4,6,8,10,12,14,16,18,20,22,24,26,28,30,32,34,36,38,40,42,44 of each strand)]
- binding result: binds
